Measurements published in paper PMC4450073.

Tests used:
[1] = molecular target: adenovirus type 5 (Ad5) hexon, on purified Ad5 vector particles (human adenovirus type 5) (UniProt P04133); experiment: SPR; biotinylated virus coupled to a streptavidin (SA) chip (Ad5 482 RU, Ad26.HVR5C 484 RU), T200; 2-fold serial dilutions of hFX from 30 μg/mL injected at 30 μL/min; 10 mM HEPES pH 7.4, 150 mM NaCl, 5 mM CaCl2, 0.005% Tween20; 1:1 binding model
[2] = molecular target: Ad26.HVR5C hexon, on purified vector particles (human adenovirus type 26); experiment: as above

**Q.** How did the Kd [1] turn out when “human coagulation factor X (natural protein)” was run?
**A.** Its Kd is 2.33 nM.

**Q.** What about the koff [1] of the same substance?
**A.** The koff was 0.00305 s⁻¹.

**Q.** And the kon [1]?
**A.** Its kon is 1.31e+06 M⁻¹ s⁻¹.

**Q.** What about the Kd [2] of the same substance?
**A.** Its Kd is 3.46 nM.

**Q.** And the koff [2]?
**A.** The koff was 0.0107 s⁻¹.

**Q.** What about the kon [2] of the same substance?
**A.** Its kon is 3.08e+06 M⁻¹ s⁻¹.
